Laboratory results reported in patent US20260201020A1, “METHODS FOR EXPRESSION OF FUSION-FREE BOVINE ULTRALONG CDR3 SCAFFOLD” (priority 2022, published 2026).
Values joined by “and” are separate entries in the source; they are usually repeats but may differ in a detail not shown here. Equal entries are not always repeated. Where two headings read alike, the source gives them in different places.

Columns and labels:
[1] = Capillary isoelectric focusing (cIEF), isoelectric point; format: physicochemical; conditions: non-reduced; mature knob expression, 2 L scale
Protocol: Capillary isoelectric focusing (cIEF): 2 mg/mL knob protein samples were diluted 2-fold by combining 30 microliter of sample with 30 μL of Milli-Q water. 20 μL of the diluted sample was added to 180 μL of Master Mix comprised of: 35% of 1% Methyl cellulose, 10 mM of 0.5M Arginine, 10 mM of 0.25M Iminodiacetic acid, 4% of pI 3-10 Pharmalyte solution, 1% of pI 4.05 marker, 1% of pI 9.5 marker, 2M of 8M Urea, and Milli-Q water. The total amount of 200 μL was then aliquoted into the sample plate for iCIEF analysis. Separation of the analyte occurs in the Maurice capillary cIEF cartridge (Bio-techne PN: PS-MC02-C) set to 55 seconds of sample load, and 1 min at 1500 V then 15 min at 3000 V. Both absorbance and fluorescence detection settings were enabled. Absorbance exposure time was set to 0.005 seconds, while fluorescence exposure times were set to 3, 5, 10, 20 and 40 seconds. Data processing was performed by Compass for iCE software (Version: 2.1.0, Build ID: 0226) from Bio-techne.

spike RBD = spike RBD (Severe acute respiratory syndrome coronavirus 2, UniProt P0DTC2)
[2] = target: SARS-CoV-2-Spike receptor binding domain protein (RBD) (Severe acute respiratory syndrome coronavirus 2, UniProt P0DTC2)
[3] = target: SARS-CoV-2 Spike RBD (SARS-CoV-2), P0DTC2
[4] = target: SARS-CoV-2 Spike RBD (SARS-CoV-2), P0DTC2; remark: listed apart in the source
[5] = target: SARS-CoV-2 Spike RBD (SARS-CoV-2), P0DTC2; remark: listed apart in the source
[6] = target: SARS-CoV-2 Spike RBD (SARS-CoV-2), P0DTC2; remark: listed apart in the source
[7] = target: SARS-CoV-2 Spike RBD (SARS-CoV-2), P0DTC2; remark: listed apart in the source
[8] = target: SARS-CoV-2 Spike RBD (SARS-CoV-2), P0DTC2; remark: listed apart in the source
[9] = target: SARS-CoV-2 Spike RBD (SARS-CoV-2), P0DTC2; remark: listed apart in the source
[10] = target: SARS-CoV-2 Spike RBD (SARS-CoV-2), P0DTC2; remark: listed apart in the source
[11] = target: SARS-CoV-2 Spike RBD (SARS-CoV-2), P0DTC2; remark: listed apart in the source
[12] = target: SARS-CoV-2 Spike RBD (SARS-CoV-2), P0DTC2; remark: listed apart in the source
[13] = target: SARS-CoV-2 Spike RBD (SARS-CoV-2), P0DTC2; remark: listed apart in the source
[14] = target: SARS-CoV-2 Spike RBD (SARS-CoV-2), P0DTC2; remark: listed apart in the source
[15] = target: SARS-CoV-2 Spike RBD (SARS-CoV-2), P0DTC2; remark: listed apart in the source
[16] = target: SARS-CoV-2 Spike RBD (SARS-CoV-2), P0DTC2; remark: listed apart in the source
[17] = target: SARS-CoV-2 Spike RBD (SARS-CoV-2), P0DTC2; remark: listed apart in the source
[18] = target: SARS-CoV-2 Spike RBD (SARS-CoV-2), P0DTC2; remark: listed apart in the source
[19] = target: SARS-CoV-2 Spike RBD (SARS-CoV-2), P0DTC2; remark: listed apart in the source
[20] = target: SARS-CoV-2 Spike RBD (SARS-CoV-2), P0DTC2; remark: listed apart in the source
[21] = target: SARS-CoV-2 Spike RBD (SARS-CoV-2), P0DTC2; remark: listed apart in the source
[22] = target: SARS-CoV-2 Spike RBD (SARS-CoV-2), P0DTC2; remark: listed apart in the source
[23] = target: SARS-CoV-2 Spike RBD (SARS-CoV-2), P0DTC2; remark: listed apart in the source
[24] = target: SARS-CoV-2 Spike RBD (SARS-CoV-2), P0DTC2; remark: listed apart in the source
[25] = target: SARS-CoV-2 Spike RBD (SARS-CoV-2), P0DTC2; remark: listed apart in the source
[26] = target: SARS-CoV-2 Spike RBD (SARS-CoV-2), P0DTC2; remark: listed apart in the source
[27] = target: SARS-CoV-2 Spike RBD (SARS-CoV-2), P0DTC2; remark: listed apart in the source
[28] = target: SARS-CoV-2 Spike RBD (SARS-CoV-2), P0DTC2; remark: listed apart in the source

R2F12-mini (GGSNACPDDFDYRCSCIGGCGCARKGCVGPLCCRSDLGGYLTDSPA)
Isoelectric Point (pI) Determination by iCEF [1]: 5.15 (non-reduced)
binding activity to spike RBD (spike RBD): maintain binding activity
Amino Acid Sequence of Binding Epitopes to Spike RBD Protein as determined by HDX Analysis: Major Epitope [2]: 154-194 (Major and 154-192 (Major

R2G3-mini (GSTCPDGYEHTCGCIGGCGCKRSACIGALCCQASLGGWLS)
Isoelectric Point (pI) Determination by iCEF [1]: 7.37 (non-reduced)
binding activity to spike RBD (spike RBD): maintain binding activity
Amino Acid Sequence of Binding Epitopes to Spike RBD Protein as determined by HDX Analysis: Major Epitope [2]: 154-192 (Major and 154-194 (Major
RBD amino acid sequence with maximum protection against deuterium uptake [2]: 158-184

B1: R2F12-His (peptide)
chain: GGGGAMGSKTKNACPDDFDYRCSCIGGCGCARKGCVGPLCCRSDLGGYLTDSPAYIYLGGGGSGGGGSHHHHHH
modifications: not checked
Adjusted Binding Rate [3]: 1.62 nm/s
Adjusted Binding Rate [4]: 2.46 nm/s
Adjusted Binding Rate [5]: 1.33 nm/s
Adjusted Binding Rate [6]: 1.67 nm/s
Adjusted Binding Rate [7]: 3.6 nm/s
Adjusted Binding Rate [8]: 9.3 nm/s
Adjusted Binding Rate [9]: 9.6 nm/s
Adjusted Binding Rate [10]: 14.9 nm/s
Adjusted Binding Rate [11]: 1.3 nm/s
Adjusted Binding Rate [12]: 2.38 nm/s
Adjusted Binding Rate [13]: 0.62 nm/s
Adjusted Binding Rate [14]: 2.11 nm/s
Adjusted Binding Rate [15]: 2.68 nm/s
Adjusted Binding Rate [16]: 2.69 nm/s
Adjusted Binding Rate [17]: 3.32 nm/s
Adjusted Binding Rate [18]: 5.37 nm/s
Adjusted Binding Rate [19]: 3.86 nm/s
Adjusted Binding Rate [20]: 4.69 nm/s
Adjusted Binding Rate [21]: 3.61 nm/s
Adjusted Binding Rate [22]: 2.76 nm/s
Adjusted Binding Rate [23]: 4.7 nm/s
Adjusted Binding Rate [24]: 3.54 nm/s
Adjusted Binding Rate [25]: 0.4 nm/s
Adjusted Binding Rate [26]: 0.8 nm/s
Adjusted Binding Rate [27]: 0.5 nm/s
Adjusted Binding Rate [28]: 0.8 nm/s
